Binding signal data for 2 molecules are collected here from PMC3564804, “A Visual Dual-Aptamer Logic Gate for Sensitive Discrimination of Prion Diseases-Associated Isoform with Reusable Magnetic Microparticles and Fluorescence Quantum Dots”.

This series addresses PrPC, native state (recombinant human prion protein) (human, UniProt P04156 23-231).

B1: Apt2 (ssDNA)
DNA: GTTTTGTTACAGTTCGTTTCTTTTCCCTGTCTTGTTTTGTTGTCT
modifications: 5'-biotin
In the case of B1, the binding signal amounted to 2.41 fluorescence ratio.

B2: Apt1 (ssDNA)
DNA: CTTACGGTGGGGCAATT
modifications: 5'-NH2
Take B2: the binding signal was determined as 2.41 fluorescence ratio.
